Laboratory results published in US7618943B2, “Fusion polypeptides, and use thereof in antivascular tumor therapy” (Oncoscience AG, priority 2003, dated 2009).
“Also recorded” adds a separate entry of the source.

Tests used:
[1] = biological target: T1, matrix metalloproteinase-2 (MMP-2) (Homo sapiens, UniProt P08253); details: cited from earlier work
T1 sequence (P08253 110-660): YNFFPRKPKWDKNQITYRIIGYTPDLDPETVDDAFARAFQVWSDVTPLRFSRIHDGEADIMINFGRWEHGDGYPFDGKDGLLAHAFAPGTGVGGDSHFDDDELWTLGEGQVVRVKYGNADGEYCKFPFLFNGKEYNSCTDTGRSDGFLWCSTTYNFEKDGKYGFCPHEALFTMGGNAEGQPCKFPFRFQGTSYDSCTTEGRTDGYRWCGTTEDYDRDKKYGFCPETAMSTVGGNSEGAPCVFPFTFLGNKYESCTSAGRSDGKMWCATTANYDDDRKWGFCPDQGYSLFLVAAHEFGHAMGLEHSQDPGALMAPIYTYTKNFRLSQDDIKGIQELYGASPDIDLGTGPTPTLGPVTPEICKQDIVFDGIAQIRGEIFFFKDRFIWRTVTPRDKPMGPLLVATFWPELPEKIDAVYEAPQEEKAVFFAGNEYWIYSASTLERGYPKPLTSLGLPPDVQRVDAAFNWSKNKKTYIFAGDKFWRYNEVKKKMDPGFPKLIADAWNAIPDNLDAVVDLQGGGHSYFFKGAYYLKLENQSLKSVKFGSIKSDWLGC

integrin αvβ3 = integrin αvβ3 (Homo sapiens, UniProt P05106+P06756); test: ELISA binding to immobilized purified αvβ3
Experimental: FIG. 4: Binding of tTF, tTF-RGD and tTF-NGR to integrin αvβ3. The binding of 0.1 μM tTF, tTF-RGD and tTF-NGR to immobilized αvβ3 was quantified with a polyclonal antibody against human TF (American Diagnostica) in an ELISA. The results are presented as median and interquartile range. The differences in binding between tTF-RGD and tTF or between tTF-NGR and tTF were statistically significant (p<0.001, Mann-Whitney test).

human endothelial cells = test: FACS binding of biotinylated proteins to endothelial cells in suspension; format: cell-based; details: 0.1 μM tTF-RGD, 1 μM competing peptide
Experimental: FIG. 6: Binding of tTF and tTF-RGD to human endothelial cells. A: FACS analysis of endothelial cells incubated with 0.1 μM tTF (2) or with 0.1 μM tTF-RGD (3) for 60 min at 4° C. […] Curves 1 in A and B show the negative control.
Next the specific binding of tTF-RGD to αvβ3 on endothelial cells was evaluated. For this, the differential binding of biotinylated tTF and tTF-RGD to endothelial cells in suspension was analysed by FACS (Fluorescence Activated Cell Sorting). The fact that all endothelial cells held in tissue culture are activated, i.e. express αvβ3 molecules, is utilized experimentally. This can be detected by various immunohistochemical methods. A cultivated endothelial cell thus corresponds, in relation to its expression pattern with respect to αvβ3 to a tumor endothelial cell. Accordingly, a cultivated endothelial cell can be used as a model system for the specific binding of substances to tumor endothelial cells and also permits predictions to be made concerning the expected toxicity.
Streptavidin-phycoerythrin was used as the detection method. The measured fluorescence intensity for tTF-RGD was higher by a factor of 8 than for tTF (FIG. 6A). Furthermore, the binding of 0.1 μM tTF-RGD to endothelial cells was lowered competitively by 75% by the administration of 1 μM of the synthetic peptide GRGDSP (SEQ ID NO:33) (FIG. 6B). […]

[2] = tested on: human lung carcinoma (CCL185); test: CCL185 lung carcinoma xenograft in athymic nude mice, intravenous therapy; format: in vivo
Text: FIG. 7: Inhibition of a human lung carcinoma (CCL185) growing as a xenograft in athymic nude mice by intravenous therapy with tTF fusion proteins (tTF-RGD, n=6; tTF-NGR, n=6) compared with tumor growth with infusion of physiological saline solution (NaCl, n=8) or tTF (n=1). The vertical arrows indicate the times of injection with the respective substances.
c: Inhibition of a human lung carcinoma (CCL185) growing as a xenograft in athymic nude mice by intravenous therapy with tTF fusion proteins (tTF-RGD, n=11) compared with the growth of the tumors in infusion of physiological saline solution (NaCl, n=10) or tTF (n=5). The vertical arrows indicate the times of the injections with the respective substances.
(§1) The tTF-RGD and tTF-NGR fusion proteins were evaluated with respect to their effects and side-effects on xenografts of human tumors in athymic nude mice. The models established in our laboratory were used for this (33, 34). The cell lines CCL185 (human adenocarcinoma of the lung) and M-21 (human melanoma) were injected subcutaneously into the flank of male BALB/c nude mice (9-12 weeks old). On attaining a tumor volume of about 50-100 mm^3 (CCL185) or 400-600 mm^3 (M−21), the mice were assigned to four groups at random. Group 1 received only physiological saline solution (NaCl), group 2 tTF, group 3 tTF-RGD, and group 4 tTF-NGR (in each case 1.5-2.0 mg/kg body weight (BW) of the protein). The injections were made in the caudal vein of the animals at intervals of 1-3 days (depending on the growth rate of the particular cell line). Considerable therapeutic activity of the fusion proteins was observed.

[3] = tested on: human fibrosarcoma (HT1080); test: HT1080 fibrosarcoma xenograft in BALB/c nude mice, intravenous therapy; format: in vivo; details: HT1080 tumors
Text: b: Inhibition of a human fibrosarcoma (HT1080) growing as a xenograft in athymic nude mice by intravenous therapy with tTF fusion proteins (tTF-RGD, n=12) compared with the growth of the tumors with infusion of physiological saline solution (NaCl, n=15) or tTF (n=14). The vertical arrows indicate the times of the injections with the respective substances.
The antitumor activity of the tTF-RGD fusion protein was also investigated in BALB/c nude mice with fibrosarcomas (HT1080). These tumors grow rapidly and are well-vascularized. […] This effect lasted until the end of the experiment on day 7 (P=0.021 for tTF-RGD relative to the buffer control (physiological saline solution), P=0.005 for tTF-RGD relative to tTF).

[4] = biological target: T2, activation of factor X to factor Xa via factor VIIa (Homo sapiens, UniProt P08709); test: Cofactor activity in activation of FX by FVIIa (Michaelis-Menten analysis, chromogenic FXa readout); format: biochemical; details: in the presence of phospholipids
T2 construct: 50 nM recombinant FVIIa (Novo-Nordisk) in TBS-BSA; purchased Novo-Nordisk (FVIIa); Enzyme Research Laboratories (FX)
T2 sequence (P08709 61-212 limits assumed): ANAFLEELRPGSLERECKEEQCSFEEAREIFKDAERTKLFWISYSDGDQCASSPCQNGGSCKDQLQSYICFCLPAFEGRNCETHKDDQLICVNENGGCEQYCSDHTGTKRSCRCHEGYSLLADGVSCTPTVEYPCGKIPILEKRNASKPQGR
T2 sequence (P08709 213-466 limits assumed): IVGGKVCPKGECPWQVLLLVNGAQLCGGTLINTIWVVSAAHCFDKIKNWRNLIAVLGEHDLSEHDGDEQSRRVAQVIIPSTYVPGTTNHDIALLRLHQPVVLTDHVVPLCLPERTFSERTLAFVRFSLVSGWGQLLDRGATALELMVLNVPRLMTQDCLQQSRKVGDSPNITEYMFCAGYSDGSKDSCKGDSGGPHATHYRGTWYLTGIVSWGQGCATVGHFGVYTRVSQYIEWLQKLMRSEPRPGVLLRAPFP
Experimental: The ability of tTF and of the tTF fusion polypeptides to intensify the specific proteolytic activation of FX via FVIIa in the presence of phospholipids was determined in a slightly modified version of the method described by Ruf (45). For this, 20 μl of each of the following reagents was pipetted in microtiter plates: (a) 50 nM recombinant FVIIa (Novo-Nordisk) in TBS-BSA; (b) 0.16 nM-1.6 μM tTF/tTF fusion polypeptide in TBS-BSA; (c) 25 mM CaCl2 and 500 μM phospholipid vesicle (phosphatidylcholine/phosphatidylserine, 70/30, M/M; Sigma). After 10 min incubation at room temperature, 20 μl of the natural substrate FX (Enzyme Research Laboratories) was added at a concentration of 5 μM. Then a sample was taken by pipette at one-minute intervals and the reaction was stopped by adding 100 mM EDTA solution. The amount of FXa that formed was measured by addition of the chromogenic substrate Spectrozyme FXa in a Microplate Reader by determining the change in absorption at 405 nm and the parameters for the Michaelis-Menten kinetics were analysed by the method described by Ruf. […] The Michaelis constants (Km) found for the fusion polypeptides were in the range 0.12-1.2 nM (FIG. 3), and thus in the lower range that is published for tTF. It can therefore be assumed that the functional activity is unaffected by the fusing of tTF with the peptides.

[5] = tested on: human malignant melanoma (M21); test: M21 melanoma xenograft in athymic nude mice, intravenous therapy; format: in vivo
Experimental: The vertical arrows indicate the times of injection with the respective substances.
The vertical arrows indicate the times of the injections with the respective substances.
as §1

[6] = tested on: normal tissue such as heart, kidney, liver and lung; test: Histology of normal organs after injection (clotting, necrosis, organ toxicity); details: repeated high doses (4 mg/kg BW)
tumor blood vessels = test: Macroscopy and histology of tumors after injection (thrombosis induction in tumor vessels, necrosis); format: in vivo, mice
Experimental: FIG. 9: Macroscopic in vivo photograph of a tumor-bearing mouse 20 min after injection of the tTF-NGR fusion protein (A, left half of the picture) or NaCl (A, right half of the picture). […] After 60 min, the two mice were exsanguinated, the tumor was excised in toto and examined histologically. […] In contrast, the NaCl-treated tumor appears to be vital (C).
FIG. 10: Histology of the melanoma tumor 1 hour after intravenous injection of tTF-RGD (A and B), tTF-NGR (C and D) and common salt (E and F) in the caudal vein of the tumor-bearing nude mouse. […] The photographs are of representative areas of the tumors (A, C and E: 200× magnification, B, D and F 400× magnification; HE staining (staining described e.g. in H. C. Burck, Histologische Technik-Leitfaden für die Herstellung mikroskopischer Präparate in Unterricht und Praxis, 5th edition, Thieme Verlag, Stuttgart 1982, pages 109 ff.).
FIG. 35: Macrograph of a mouse bearing an M21 tumor at the end of treatment (day 7) with tTF-RGD fusion protein (A, C) or NaCl (B, D).
To verify the mechanism of action of thrombosis induction in tumor vessels, the following experiment was carried out: the human melanoma cell line was injected into the flank of two male BALB/c nude mice. On attaining a tumor size of approx. 500 mm^3, 2.0 mg/kg BW tTF-NGR or NaCl was injected into the caudal vein. […] After 60 min the mice were exsanguinated, the tumor was excised in toto and investigated histologically. […] In contrast, the tumor treated with NaCl appears to be vital (FIG. 9C).

[7] = melanoma tumor 1 hour after intravenous injection, HE staining

Chain of integrin αvβ3 (P06756 31-889 limits assumed): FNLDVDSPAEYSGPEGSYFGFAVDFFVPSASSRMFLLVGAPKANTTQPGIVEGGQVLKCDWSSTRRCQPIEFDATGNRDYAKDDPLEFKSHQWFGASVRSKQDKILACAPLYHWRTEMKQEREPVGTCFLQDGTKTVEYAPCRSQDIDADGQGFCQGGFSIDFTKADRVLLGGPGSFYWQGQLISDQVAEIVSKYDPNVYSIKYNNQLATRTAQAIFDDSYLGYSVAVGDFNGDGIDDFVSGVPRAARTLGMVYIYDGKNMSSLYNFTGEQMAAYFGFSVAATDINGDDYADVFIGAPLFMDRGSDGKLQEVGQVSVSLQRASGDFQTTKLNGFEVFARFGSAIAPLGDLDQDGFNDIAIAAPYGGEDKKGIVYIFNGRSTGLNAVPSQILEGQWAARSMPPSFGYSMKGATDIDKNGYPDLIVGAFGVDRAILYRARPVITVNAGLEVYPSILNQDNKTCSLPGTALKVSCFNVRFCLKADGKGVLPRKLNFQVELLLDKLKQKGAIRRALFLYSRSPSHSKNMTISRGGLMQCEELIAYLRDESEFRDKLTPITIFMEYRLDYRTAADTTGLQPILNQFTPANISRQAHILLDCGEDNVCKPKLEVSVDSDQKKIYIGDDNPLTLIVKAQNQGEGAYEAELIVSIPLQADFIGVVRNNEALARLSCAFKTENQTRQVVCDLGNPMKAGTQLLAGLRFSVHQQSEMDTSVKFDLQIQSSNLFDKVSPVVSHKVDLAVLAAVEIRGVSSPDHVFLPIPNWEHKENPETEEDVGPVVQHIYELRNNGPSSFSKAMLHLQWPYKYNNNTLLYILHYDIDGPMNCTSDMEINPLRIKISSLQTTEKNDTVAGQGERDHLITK
Chain of integrin αvβ3 (P06756 891-1048 limits assumed): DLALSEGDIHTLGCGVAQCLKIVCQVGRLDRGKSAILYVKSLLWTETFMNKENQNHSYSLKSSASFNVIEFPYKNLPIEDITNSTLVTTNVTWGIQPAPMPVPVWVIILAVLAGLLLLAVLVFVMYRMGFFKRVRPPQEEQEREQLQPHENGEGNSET
Chain of integrin αvβ3 (P05106 27-788): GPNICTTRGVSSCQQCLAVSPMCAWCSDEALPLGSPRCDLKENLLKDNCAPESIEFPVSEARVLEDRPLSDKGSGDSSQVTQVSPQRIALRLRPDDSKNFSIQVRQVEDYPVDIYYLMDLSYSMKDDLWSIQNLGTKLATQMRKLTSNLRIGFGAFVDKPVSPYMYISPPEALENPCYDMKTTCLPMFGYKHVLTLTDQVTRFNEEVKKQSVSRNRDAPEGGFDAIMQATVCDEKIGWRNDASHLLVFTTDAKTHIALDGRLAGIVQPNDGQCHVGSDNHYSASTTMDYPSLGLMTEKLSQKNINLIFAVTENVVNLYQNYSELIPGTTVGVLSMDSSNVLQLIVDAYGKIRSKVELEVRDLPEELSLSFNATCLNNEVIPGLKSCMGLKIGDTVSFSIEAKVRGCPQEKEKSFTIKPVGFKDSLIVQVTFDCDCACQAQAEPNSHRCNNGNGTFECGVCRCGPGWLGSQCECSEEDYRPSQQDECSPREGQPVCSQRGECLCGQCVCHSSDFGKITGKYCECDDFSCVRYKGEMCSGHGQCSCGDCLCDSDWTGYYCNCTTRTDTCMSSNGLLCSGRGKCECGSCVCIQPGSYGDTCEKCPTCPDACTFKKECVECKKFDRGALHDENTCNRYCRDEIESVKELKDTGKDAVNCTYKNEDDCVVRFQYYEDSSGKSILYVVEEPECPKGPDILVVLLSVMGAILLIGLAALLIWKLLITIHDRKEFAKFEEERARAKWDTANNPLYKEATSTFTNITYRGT

**Q.** With TTHWGFTL as the molecule, how does the “inhibition of MMP-2” value [1] read?
**A.** selective and potent inhibition

**Q.** Which “p of inhibition of tTF-RGD binding (Mann-Whitney test)” value (integrin αvβ3; both RGD peptide concentrations (1-10 μM)) does the source give for “GRGDSP: synthetic peptide with the sequence GRGDSP (SEQ ID NO:33) from the company Gibco” here?
**A.** < 0.001

**Q.** What about the “competitive inhibition of binding of tTF-RGD to immobilized αvβ3” value (integrin αvβ3; tTF-RGD 0.1 μM, peptide 1-10 μM) of the same molecule?
**A.** competitively inhibits; also recorded: inhibited significantly

**Q.** And the “reduction in binding of tTF-RGD to endothelial cells” value (human endothelial cells)?
**A.** 75%

B1: tTF: truncated human tissue factor, N-terminal 218 amino acids of TF (SEQ ID NO:2) (protein, listed as Homo sapiens)
chain: SGTTNTVAAYNLTWKSTNFKTILEWEPKPVNQVYTVQISTKSGDWKSKCFYTTDTECDLTDEIVKDVKQTYLARVFSYPAGNVESTGSAGEPLYENSPEFTPYLETNLGQPTIQSFEQVGTKVNVTVEDERTLVRRNNTFLSLRDVFGKDLIYTLYYWKSSSSGKKTAKTNTNEFLIDVDKGENYCFSVQAVIPSRTVNRKSTDSPVECMGQEKGEFR
modifications: Amino acid sequence of tTF1-218
**Q.** For B1, which “Mean tumor volume Day 0” value ([2]; CCL185 tumors, Day 0 (baseline)) is on record?
**A.** 44 ± 8 mm^3

**Q.** And the “Mean tumor volume Day 7” value ([2]; CCL185 tumors, Day 7)?
**A.** 764 ± 148 mm^3

**Q.** What about the “Mean tumor volume Day 0” value ([3]; Day 0 (baseline)) of the same molecule?
**A.** 1751 ± 269 mm^3

**Q.** And the “Mean tumor volume Day 7” value ([3]; Day 7)?
**A.** 2335 ± 398 mm^3

**Q.** And the “functional activity (cofactor activity in FX activation via FVIIa)” value [4]?
**A.** functionally active

**Q.** What about the “Mean tumor volume Day 0” value ([5]; M21 tumors, Day 0 (baseline)) of the same molecule?
**A.** 558 ± 47 mm^3

**Q.** And the “Mean tumor volume Day 7” value ([5]; M21 tumors, Day 7)?
**A.** 931 ± 147 mm^3

B2: tTF-NGR: fusion polypeptide tTF-GNGRAHA (SEQ ID NO:4) (protein)
chain: SGTTNTVAAYNLTWKSTNFKTILEWEPKPVNQVYTVQISTKSGDWKSKCFYTTDTECDLTDEIVKDVKQTYLARVFSYPAGNVESTGSAGEPLYENSPEFTPYLETNLGQPTIQSFEQVGTKVNVTVEDERTLVRRNNTFLSLRDVFGKDLIYTLYYWKSSSSGKKTAKTNTNEFLIDVDKGENYCFSVQAVIPSRTVNRKSTDSPVECMGQEKGEFRGNGRAHA
modifications: Amino acid sequence of tTF-GNGRAHA
**Q.** Which “effect on tumor growth” value ([2]; CCL185 xenograft, intravenous therapy, compared with NaCl or tTF) does the source give for B2 here?
**A.** Inhibition

**Q.** And the “binding to the αvβ3 integrin in ELISA” value (integrin αvβ3; 0.1 μM protein, immobilized αvβ3)?
**A.** demonstrated

**Q.** What about the “visible clot formation or organ toxicity” value [6] of the same molecule?
**A.** did not lead to any visible clot formation or organ toxicity

**Q.** What about the “effect on tumor growth” value ([5]; M21 xenograft, intravenous therapy, compared with NaCl or tTF) of the same molecule?
**A.** Inhibition and partial remission

**Q.** And the “histology of tumor blood vessels (thrombus formation)” value (tumor blood vessels; [7])?
**A.** microscopically visible thrombus formation in the blood vessels; also recorded: blood vessels appear to be thrombolytically occluded

**Q.** What about the “histology: tumor necrosis in supply region of occluded vessel” value (tumor blood vessels; [7]) of the same molecule?
**A.** Extensive tumor necroses

**Q.** And the “macroscopic picture of the tumor in vivo” value (tumor blood vessels; melanoma, 20 min after 2.0 mg/kg BW into the caudal vein)?
**A.** bluish-livid coloration of the tumor

**Q.** And the “appearance of the excised tumor” value (tumor blood vessels; melanoma, excised 60 min after 2.0 mg/kg BW)?
**A.** hemorrhagic imbibition of the tumor
